According to patent publication US20110201109:

Molecular target: Ronin (protein product of the cDNA clone from the human ES cell cDNA expression library) (UniProt Q96EK4)
Chain of UniProt Q96EK4 (Q96EK4 whole entry): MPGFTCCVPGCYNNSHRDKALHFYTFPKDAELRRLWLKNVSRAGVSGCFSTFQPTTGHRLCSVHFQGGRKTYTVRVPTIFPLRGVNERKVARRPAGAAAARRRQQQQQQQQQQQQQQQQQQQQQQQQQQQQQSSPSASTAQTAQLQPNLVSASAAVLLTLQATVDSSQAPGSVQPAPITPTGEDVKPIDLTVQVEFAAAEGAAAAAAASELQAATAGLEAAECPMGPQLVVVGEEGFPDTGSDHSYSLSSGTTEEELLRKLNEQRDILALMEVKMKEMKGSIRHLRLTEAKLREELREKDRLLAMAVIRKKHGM

Caspase-3 (as used in the in vitro transcription/translation Caspase-3 cleavage assay)
in vitro transcription/translation Caspase-3 cleavage assay: proved to be an authentic target of Caspase-3 in further analyses
